Test [1] has as its target T1, hBAFF (human, UniProt Q9Y275 134-285).
T1 construct: bought
The experiment in a line: ELISA.

For test [2], the target named is T2, hP40 (human, UniProt P29460 23-328).
T2 construct: bought
T2 sequence (looked up): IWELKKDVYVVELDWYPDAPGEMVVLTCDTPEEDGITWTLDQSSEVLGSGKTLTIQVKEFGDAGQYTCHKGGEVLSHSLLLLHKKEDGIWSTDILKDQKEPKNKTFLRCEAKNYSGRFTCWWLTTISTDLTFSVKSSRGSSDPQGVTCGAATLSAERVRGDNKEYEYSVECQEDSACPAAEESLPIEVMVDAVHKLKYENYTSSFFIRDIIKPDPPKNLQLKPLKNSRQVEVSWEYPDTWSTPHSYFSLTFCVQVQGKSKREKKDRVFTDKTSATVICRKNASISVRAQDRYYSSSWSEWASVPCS
The experiment in a line: ELISA.

Test [3] deals with T1, hBAFF. The experiment in a line: SPR Biacore T200, antibody captured on Protein A chip. (In general: Surface plasmon resonance follows binding to a sensor surface in real time, without labels.)
Test [4] addresses T2, hP40. The description is as above.
Another test has as its target T3, hTSLP (human, UniProt Q969D9 29-159).
T3 construct: bought
Kind of test: ELISA. A general note: In an ELISA, binding on a coated surface is turned into a signal by an enzyme label.

Test [5] addresses T4, hCD3 antigen protein (heterodimer of delta and epsilon subunits) (human).
T4 construct: prepared in the laboratory
T4 chain 1: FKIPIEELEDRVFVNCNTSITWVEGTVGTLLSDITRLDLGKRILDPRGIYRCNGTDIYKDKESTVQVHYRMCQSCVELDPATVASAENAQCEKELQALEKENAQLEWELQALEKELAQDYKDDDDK
T4 chain 2: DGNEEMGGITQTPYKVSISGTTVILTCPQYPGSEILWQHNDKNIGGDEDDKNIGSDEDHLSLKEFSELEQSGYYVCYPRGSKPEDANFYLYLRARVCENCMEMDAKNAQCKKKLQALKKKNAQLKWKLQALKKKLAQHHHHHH
The experiment in a line: SPR Biacore T200, antibody captured on Protein A chip.

The target in a further test is T5, hB7H3 antigen protein (human, UniProt Q5ZPR3 29-461).
T5 construct: prepared in the laboratory
T5 sequence: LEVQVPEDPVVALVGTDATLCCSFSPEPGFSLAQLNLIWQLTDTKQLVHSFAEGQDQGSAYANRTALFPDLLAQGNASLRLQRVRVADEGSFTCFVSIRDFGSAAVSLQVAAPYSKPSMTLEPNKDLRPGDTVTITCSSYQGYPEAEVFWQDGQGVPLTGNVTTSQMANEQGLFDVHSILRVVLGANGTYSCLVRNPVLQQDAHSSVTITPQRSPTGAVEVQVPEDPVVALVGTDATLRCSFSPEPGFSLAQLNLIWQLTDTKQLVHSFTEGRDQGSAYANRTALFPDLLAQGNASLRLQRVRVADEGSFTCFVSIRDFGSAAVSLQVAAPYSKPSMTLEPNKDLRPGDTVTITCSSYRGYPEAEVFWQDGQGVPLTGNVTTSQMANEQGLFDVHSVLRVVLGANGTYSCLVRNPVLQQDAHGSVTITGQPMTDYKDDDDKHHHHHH
The description is as above.

This note sets out measurements from patent US20240392020A1 (JIANGSU HENGRUI PHARMACEUTICALS, published 2024).

B1: BU1 (bispecific antibody, human IgG1, lambda, L234A L235A)
heavy 1: not shown
light 1: SSELTQDPAVSVALGQTVRVTCQGDSLRSYYASWYQQKPGQAPVLVIYGKNNRPSGIPDRFSGSSSGNTASLTITGAQAEDEADYYCSSRDSSGNHWVFGGGTELTVLGQPKAAPSVTLFPPSSEELQANKATLVCLISDFYPGAVTVAWKADSSPVKAGVETTTPSKQSNNKYAASSYLSLTPEQWKSHRSYSCQVTHEGSTVEKTVAPTECS
heavy 2: EVQLVQSGAEVKKPGESLKISCKGSGYSFTTYWLGWVRQMPGKGLDWIGIMSPVDSDIRYSPSFQGQVTMSVDKSITTAYLQWNSLKASDTAMYYCARRRPGQGYFDFWGQGTLVTVSSGGGGSGIPPKIECLPSDISIDEGKVLTVASAFTGEPTPEVTWSTGGRKIHSQEQGRFHIESTEDLTTLIISDVQKQDGGLYSLSLGNEFGSDSATVNIHIRSIDKTHTCPPCPAPEAAGGPSVFLFPPKPKDTLMISRTPEVTCVVVDVSHEDPEVKFNWYVDGVEVHNAKTKPREEQYNSTYRVVSVLTVLHQDWLNGKEYKCKVSNKALPAPIEKTISKAKGQPREPQVCTLPPSREEMTKNQVSLSCAVKGFYPSDIAVEWESNGQPENNYKTTPPVLDSDGSFFLVSKLTVDKSRWQQGNVFSCSVMHEALHNHYTQKSLSLSPGK
light 2: DIQMTQSPSSLSASVGDRVTITCRASQGISSWLAWYQQKPEKAPKSLIYAASSLQSGVPSRFSGSGSGTDFTLTISSLQPEDFATYYCQQYNIYPYTFGQGTKLEIKGGGGSSGAPRFLTRPLSYVVSVGKDASLSSQIVGNPTPQVSWEKDQLPVTAGARFRLAQDGDLYRLKILDLQLSDSGQYVSRARNAIGEAFACVGLEVGAEA
One may read the EC50 as the concentration at which the effect is half-maximal. Read a high EC50 as weaker potency. One may read the Kd as the equilibrium constant for the complex coming apart. Lower therefore signals tighter binding. A word on the koff: it is the first-order rate constant of dissociation. The kon is the second-order rate constant of association. Turning to B1, the EC50 with hBAFF [1] is 0.356 nM; with hP40 [2], 0.084 nM. Moreover, the dissociation constant (Kd) with hBAFF [3] was determined as 0.499 nM; in the test with hP40 [4] it was 0.0349 nM. The koff with hBAFF [3] was 0.000169 s⁻¹; in the test with hP40 [4] it was 4.81e-05 s⁻¹. Besides, the kon with hBAFF [3] was 338000 M⁻¹ s⁻¹; with hP40 [4], 1.38e+06 M⁻¹ s⁻¹.

B2: J2 (antibody)
heavy: not shown
light: SYELTQPLSVSVALGQTARITCSGDNIGSKYVHWYQQKPGQAPVLVIYGDNERPSGIPERFSGSNSGNTATLTISRAQAGDEADYYCQAADWVDFYVFGGGTKLTVLFDPVYKVKPNPPHNLSVINSEELSSILKLTWTNPSIKSVIILKYNIQYRTKDASTWSQIPPEDTASTRSSFTVQDLKPFTEYVFRIRCMKEDGKGYWSDWSEEASGIT
The molecule B2 registered an EC50 with hTSLP of 179 nM.

B3: J3 (antibody)
heavy: not shown
light: SYELTQPLSVSVALGQTARITCSGDNIGSKYVHWYQQKPGQAPVLVIYGDNERPSGIPERFSGSNSGNTATLTISRAQAGDEADYYCQAADWVDFYVFGGGTKLTVLGIPPKIEALPSDISIDEGKVLTVACAFTGEPTPEVTWSCGGRKIHSQEQGRFHIENTDDLTTLIIMDVQKQDGGLYTLSLGNEFGSDSATVNIHIRSI
In turn, B3 had an EC50 with hTSLP of 0.25 nM.

B4: BU2 (bispecific antibody, human IgG1, kappa, L234A L235A)
heavy 1: not shown
light 1: not shown
heavy 2: QVQLQQSGAEVKKPGSSVRVSCKASGGTFNNNAINWVRQAPGQGLEWMGGIIPMFGTAKYSQNFQGRVAITADESTGTASMELSSLRSEDTAVYYCARSRDLLLFPHHALSPWGRGTMVTVSSGGGGSGIPPKIECLPSDISIDEGKVLTVASAFTGEPTPEVTWSTGGRKIHSQEQGRFHIESTEDLTTLIISDVQKQDGGLYSLSLGNEFGSDSATVNIHIRSIDKTHTCPPCPAPEAAGGPSVFLFPPKPKDTLMISRTPEVTCVVVDVSHEDPEVKFNWYVDGVEVHNAKTKPREEQYNSTYRVVSVLTVLHQDWLNGKEYKCKVSNKALPAPIEKTISKAKGQPREPQVCTLPPSREEMTKNQVSLSCAVKGFYPSDIAVEWESNGQPENNYKTTPPVLDSDGSFFLVSKLTVDKSRWQQGNVFSCSVMHEALHNHYTQKSLSLSPGK
light 2: SSELTQDPAVSVALGQTVRVTCQGDSLRSYYASWYQQKPGQAPVLVIYGKNNRPSGIPDRFSGSSSGNTASLTITGAQAEDEADYYCSSRDSSGNHWVFGGGTELTVLGGGGSDQPQFSGAPRFLTRPLSYVVSVGKDASLSSQIVGNPTPQVSWEKDQLPVTAGARFRLAQDGDLYRLKILDLQLSDSGQYVSRARNAIGEAFACVGLEVGAEA
In the case of B4, the EC50 in the test with hBAFF [1] came to 0.469 nM; with hP40 [2], 0.0567 nM.

B5: BU3 (bispecific antibody, human IgG1, kappa, L234A L235A)
heavy 1: not shown
light 1: B4 light 2
heavy 2: EVQLVQSGAEVKKPGESLKISCKGSGYSFTTYWLGWVRQMPGKGLDWIGIMSPVDSDIRYSPSFQGQVTMSVDKSITTAYLQWNSLKASDTAMYYCARRRPGQGYFDFWGQGTLVTVSSASTKGPSVFPLAPSSKSTSGGTAALGCLVKDYFPEPVTVSWNSGALTSGVHTFPAVLQSSGLYSLSSVVTVPSSSLGTQTYICNVNHKPSNTKVDKKVEPKSCDKTHTCPPCPAPEAAGGPSVFLFPPKPKDTLMISRTPEVTCVVVDVSHEDPEVKFNWYVDGVEVHNAKTKPREEQYNSTYRVVSVLTVLHQDWLNGKEYKCKVSNKALPAPIEKTISKAKGQPREPQVCTLPPSREEMTKNQVSLSCAVKGFYPSDIAVEWESNGQPENNYKTTPPVLDSDGSFFLVSKLTVDKSRWQQGNVFSCSVMHEALHNHYTQKSLSLSPGK
light 2: not shown
As for B5, the figures for the EC50 with hBAFF [1] and with hP40 [2] were 0.413 nM and 0.224 nM, respectively.

B6: BU4 (bispecific antibody, human IgG1, kappa, L234A L235A)
heavy 1: not shown
light 1: not shown
heavy 2: QVQLQQSGAEVKKPGSSVRVSCKASGGTFNNNAINWVRQAPGQGLEWMGGIIPMFGTAKYSQNFQGRVAITADESTGTASMELSSLRSEDTAVYYCARSRDLLLFPHHALSPWGRGTMVTVSSGGGGSKAGIRGIPPKIECLPSDISIDEGKVLTVASAFTGEPTPEVTWSTGGRKIHSQEQGRFHIESTEDLTTLIISDVQKQDGGLYSLSLGNEFGSDSATVNIHIRSIDKTHTCPPCPAPEAAGGPSVFLFPPKPKDTLMISRTPEVTCVVVDVSHEDPEVKFNWYVDGVEVHNAKTKPREEQYNSTYRVVSVLTVLHQDWLNGKEYKCKVSNKALPAPIEKTISKAKGQPREPQVCTLPPSREEMTKNQVSLSCAVKGFYPSDIAVEWESNGQPENNYKTTPPVLDSDGSFFLVSKLTVDKSRWQQGNVFSCSVMHEALHNHYTQKSLSLSPGK
light 2: B4 light 2
As for B6, the EC50 with hBAFF [1] turned out to be 0.506 nM; with hP40 [2], 0.0443 nM.

B7: J0 (antibody, human IgG1, lambda)
heavy: not shown
light: SYELTQPLSVSVALGQTARITCSGDNIGSKYVHWYQQKPGQAPVLVIYGDNERPSGIPERFSGSNSGNTATLTISRAQAGDEADYYCQAADWVDFYVFGGGTKLTVLGQPKAAPSVTLFPPSSEELQANKATLVCLISDFYPGAVTVAWKADSSPVKAGVETTTPSKQSNNKYAASSYLSLTPEQWKSHRSYSCQVTHEGSTVEKTVAPTECS
In turn, B7 returned an EC50 with hTSLP of 0.08 nM.

B8: FA-1 (bispecific antibody)
heavy 1: QVQLVQSGGGVVQPGTSLRLSCAASGFIFSSSAMHWVRQAPGKGLEWVAVISYDGSNKYYVDSVKGRFTISRDNSKNTLYLQMNSLRAEDTAVYYCARSARLYASFDYWGQGALVTVSSGGGGSGIPPKIECLPIDISIDEGKVLTVASAFTGEPTPEVTWSTGGRKIHSQEQGRFHIENTDDLTTLIIKDVQKQDGGLYTLTLRNEFGSDSATVNIHIRSIDKTHTCPPCPAPEAAGGPSVFLFPPKPKDTLMISRTPEVTCVVVDVSHEDPEVKFNWYVDGVEVHNAKTKPREEQYNSTYRVVSVLTVLHQDWLNGKEYKCKVSNKALPAPIEKTISKAKGQPREPQVCTLPPSREEMTKNQVSLSCAVKGFYPSDIAVEWESNGQPENNYKTTPPVLDSDGSFFLVSKLTVDKSRWQQGNVFSCSVMHEALHNHYTQKSLSLSPGK
light 1: DTVVTQEPSFSVSPGGTVTLTCGLSSGSVSTSHYPSWYQQTPGQAPRMLIYNTNTRSSGVPDRFSGSILGNKAALTITGAQADDESDYYCAIHVDRDIWVFGGGTKLTVLGGGGSSGAPRFLTRPLAFVVSVGKDATLSSQIVGNPTPQVSWEKDKQPVTAGARFRLAQDGDLYRLKILDLQLSDSGQYVSRARNAIGEAFACLGLQVDAEA
heavy 2: not shown
light 2: not shown
notes: also called FA-1 bispecific antibody
In test [5], B8 showed an equilibrium dissociation constant (Kd) of 60.2 nM, a dissociation rate constant (koff) of 0.00425 s⁻¹ and a kon of 70600 M⁻¹ s⁻¹. In the test with hB7H3 antigen protein, this molecule gave a dissociation constant Kd of 45 nM, a koff of 0.00712 s⁻¹ and an association rate constant (kon) of 158000 M⁻¹ s⁻¹.
